Results taken from paper doi:10.1101/2022.08.26.505453.
Where “and” joins values, the source holds several entries; their conditions need not be identical. Equal values may be shown once.

Columns and labels:
[1] = molecular target: MBP-Vpu fusion protein (His8 tag, maltose binding protein, 11-residue linker, full-length HIV-1 Vpu with Q36C) (HIV-1); test: SEC
[2] = molecular target: MBP-Vpu fusion protein (His8 tag, maltose binding protein, 11-residue linker, full-length HIV-1 Vpu with Q36C) (HIV-1); test: SDS-PAGE and western blot
[3] = molecular target: MBP-Vpu fusion protein (His8 tag, maltose binding protein, 11-residue linker, full-length HIV-1 Vpu with Q36C) (HIV-1); test: SEC; remark: listed apart in the source
[4] = molecular target: MBP-Vpu fusion protein (His8 tag, maltose binding protein, 11-residue linker, full-length HIV-1 Vpu with Q36C) (HIV-1); test: negative staining electron microscopy
[5] = molecular target: MBP-Vpu fusion protein (His8 tag, maltose binding protein, 11-residue linker, full-length HIV-1 Vpu with Q36C) (HIV-1); test: SEC; remark: listed apart in the source

With “MBP-Vpu fusion protein (His8 tag, maltose binding protein, 11-residue linker, full-length HIV-1 Vpu with Q36C)” as the substance, how does the stoichiometry N [1] read?
The stoichiometry N was 5.

And the stoichiometry N [2]?
The stoichiometry N was 2 and 5.

And the stoichiometry N [3]?
The stoichiometry N was 5 and 4.

And the stoichiometry N [4]?
The stoichiometry N was 5.

And the stoichiometry N [5]?
Its stoichiometry N is 5 and 4.
